Source: PMC9482650, “Quantitative fragmentomics allow affinity mapping of interactomes” (Nature Communications, 2022)

T1: RGS12, O14924
T1 sequence (O14924 17-108, limits assumed, looked up): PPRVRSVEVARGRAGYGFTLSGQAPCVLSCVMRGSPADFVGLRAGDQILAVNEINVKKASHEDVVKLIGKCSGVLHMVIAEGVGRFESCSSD

T2: INTU, Q9ULD6
T2 sequence (Q9ULD6 180-273, limits assumed, looked up): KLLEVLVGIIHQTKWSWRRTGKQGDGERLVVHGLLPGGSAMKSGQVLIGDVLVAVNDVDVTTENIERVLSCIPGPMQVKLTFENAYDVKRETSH

T3: PREX2_2, Q70Z35
T3 sequence (Q70Z35 672-764, limits assumed, looked up): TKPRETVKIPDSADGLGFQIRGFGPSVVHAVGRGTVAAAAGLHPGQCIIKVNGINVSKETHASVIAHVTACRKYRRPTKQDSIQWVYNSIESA

T4: GRIP1_1, Q9Y3R0
T4 sequence (Q9Y3R0 48-146, limits assumed, looked up): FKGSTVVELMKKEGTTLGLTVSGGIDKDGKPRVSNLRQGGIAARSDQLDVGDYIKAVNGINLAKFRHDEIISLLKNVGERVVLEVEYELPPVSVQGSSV

T5: PARD6G, Q9BYG4
T5 sequence (Q9BYG4 153-261, limits assumed, looked up): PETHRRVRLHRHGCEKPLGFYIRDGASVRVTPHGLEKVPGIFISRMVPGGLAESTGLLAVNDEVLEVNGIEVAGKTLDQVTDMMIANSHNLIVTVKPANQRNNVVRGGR

T6: MPP5, Q8N3R9
T6 sequence (Q8N3R9 251-346, limits assumed, looked up): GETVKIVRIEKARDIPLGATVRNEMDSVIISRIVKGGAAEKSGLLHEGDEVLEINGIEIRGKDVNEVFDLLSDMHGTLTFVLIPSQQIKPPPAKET

T7: PDZD7_1, Q9H5P4
T7 sequence (Q9H5P4 81-178, limits assumed, looked up): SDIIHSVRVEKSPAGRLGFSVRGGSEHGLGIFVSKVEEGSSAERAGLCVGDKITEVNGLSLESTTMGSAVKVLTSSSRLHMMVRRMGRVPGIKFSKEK

T8: GIPC1, O14908
T8 sequence (O14908 128-223, limits assumed, looked up): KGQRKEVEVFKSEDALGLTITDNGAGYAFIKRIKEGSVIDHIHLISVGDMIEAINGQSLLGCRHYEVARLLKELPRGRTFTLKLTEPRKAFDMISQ

T9: PDZD2_6, O15018
T9 sequence (O15018 2745-2839, limits assumed, looked up): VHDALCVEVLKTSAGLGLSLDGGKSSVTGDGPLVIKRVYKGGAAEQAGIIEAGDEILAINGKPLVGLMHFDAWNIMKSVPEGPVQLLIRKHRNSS

T10: PARD6B, Q9BYG5
T10 sequence (Q9BYG5 152-260, limits assumed, looked up): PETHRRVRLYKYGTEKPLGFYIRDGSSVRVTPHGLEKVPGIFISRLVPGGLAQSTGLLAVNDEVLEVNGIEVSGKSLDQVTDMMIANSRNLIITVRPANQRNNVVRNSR

T11: TJP3_1, O95049
T11 sequence (O95049 6-103, limits assumed, looked up): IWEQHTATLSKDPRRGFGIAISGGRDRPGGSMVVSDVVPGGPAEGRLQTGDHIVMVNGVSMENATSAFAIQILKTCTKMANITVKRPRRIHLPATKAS

T12: MPDZ_3, O75970
T12 sequence (O75970 372-473, limits assumed, looked up): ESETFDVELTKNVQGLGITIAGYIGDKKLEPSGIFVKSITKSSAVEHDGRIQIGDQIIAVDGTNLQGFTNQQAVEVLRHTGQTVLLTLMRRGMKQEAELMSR


Legend:
Experiment in all cases: holdup assay
Set-up in all cases: key: below the threshold = too weak to quantify, mostly under pKd 3.1 to 4
Settings in all cases: plain residues with an end cap or a label only (N-terminal biotin on a linker: ttds)
RGS12, O14924 = biological target: T1, RGS12, O14924
CARD14, Q9BXL6 = biological target: CARD14, Q9BXL6
Chain of CARD14, Q9BXL6 (Q9BXL6 558-663): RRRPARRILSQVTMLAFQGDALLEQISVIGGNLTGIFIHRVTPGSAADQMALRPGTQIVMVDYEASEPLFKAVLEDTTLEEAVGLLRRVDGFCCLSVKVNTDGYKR

Q96FS4 = biological target: Q96FS4
SDCBP_1, O00560 = biological target: SDCBP_1, O00560
Chain of SDCBP_1, O00560 (O00560 111-198): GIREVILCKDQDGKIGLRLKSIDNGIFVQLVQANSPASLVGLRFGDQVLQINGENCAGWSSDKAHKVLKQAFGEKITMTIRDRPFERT

Q96JY6 = biological target: Q96JY6
RIMS1, Q86UR5 = biological target: RIMS1, Q86UR5
Chain of RIMS1, Q86UR5 (Q86UR5 584-692): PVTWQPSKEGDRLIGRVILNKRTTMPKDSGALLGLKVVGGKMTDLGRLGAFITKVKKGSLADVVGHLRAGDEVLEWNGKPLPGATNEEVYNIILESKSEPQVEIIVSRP

INTU, Q9ULD6 = biological target: T2, INTU, Q9ULD6
AHNAK2, Q8IVF2 = biological target: AHNAK2, Q8IVF2
Chain of AHNAK2, Q8IVF2 (Q8IVF2 108-193): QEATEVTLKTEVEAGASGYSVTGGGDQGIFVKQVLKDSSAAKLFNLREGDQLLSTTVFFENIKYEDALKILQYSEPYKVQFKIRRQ

Q8TEW0 = biological target: Q8TEW0
MAGI1_4, Q96QZ7 = biological target: MAGI1_4, Q96QZ7
Chain of MAGI1_4, Q96QZ7 (Q96QZ7 other isoform, or with tags, fused parts or gaps): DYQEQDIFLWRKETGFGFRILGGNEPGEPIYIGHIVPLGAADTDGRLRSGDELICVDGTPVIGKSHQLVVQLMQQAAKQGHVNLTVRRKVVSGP

PREX2_2, Q70Z35 = biological target: T3, PREX2_2, Q70Z35
Q9UMS6 = biological target: Q9UMS6
O60759 = biological target: O60759
GRIP1_1, Q9Y3R0 = biological target: T4, GRIP1_1, Q9Y3R0
PREX1_1, Q8TCU6 = biological target: PREX1_1, Q8TCU6
Chain of PREX1_1, Q8TCU6 (Q8TCU6 608-718): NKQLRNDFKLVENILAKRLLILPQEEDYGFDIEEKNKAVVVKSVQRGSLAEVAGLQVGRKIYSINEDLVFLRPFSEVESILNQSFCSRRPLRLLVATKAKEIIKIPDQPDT

PARD6G, Q9BYG4 = biological target: T5, PARD6G, Q9BYG4
MPP5, Q8N3R9 = biological target: T6, MPP5, Q8N3R9
RGS3, P49796-9 = biological target: RGS3, P49796-9
Chain of RGS3, P49796-9 (P49796 other isoform, or with tags, fused parts or gaps): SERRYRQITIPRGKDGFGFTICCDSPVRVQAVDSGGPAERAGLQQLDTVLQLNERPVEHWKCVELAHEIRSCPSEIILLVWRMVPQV

PDZD7_1, Q9H5P4 = biological target: T7, PDZD7_1, Q9H5P4
Q96JB8 = biological target: Q96JB8
GIPC1, O14908 = biological target: T8, GIPC1, O14908
PDZD2_6, O15018 = biological target: T9, PDZD2_6, O15018
PARD6B, Q9BYG5 = biological target: T10, PARD6B, Q9BYG5
MAGI1_5, Q96QZ7 = biological target: MAGI1_5, Q96QZ7
Chain of MAGI1_5, Q96QZ7 (Q96QZ7 986-1098): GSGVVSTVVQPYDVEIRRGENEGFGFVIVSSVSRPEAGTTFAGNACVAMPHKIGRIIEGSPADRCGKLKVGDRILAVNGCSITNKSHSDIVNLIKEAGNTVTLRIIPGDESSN

TJP3_1, O95049 = biological target: T11, TJP3_1, O95049
MPDZ_3, O75970 = biological target: T12, MPDZ_3, O75970
Q12923 = biological target: Q12923

Row | pKd (RGS12, O14924) | pKd (CARD14, Q9BXL6) | pKd (Q96FS4) | pKd (SDCBP_1, O00560) | pKd (Q96JY6) | pKd (RIMS1, Q86UR5) | pKd (INTU, Q9ULD6) | pKd (AHNAK2, Q8IVF2) | pKd (Q8TEW0) | pKd (MAGI1_4, Q96QZ7) | pKd (PREX2_2, Q70Z35) | pKd (Q9UMS6) | pKd (O60759) | pKd (GRIP1_1, Q9Y3R0) | pKd (PREX1_1, Q8TCU6) | pKd (PARD6G, Q9BYG4) | pKd (MPP5, Q8N3R9) | pKd (RGS3, P49796-9) | pKd (PDZD7_1, Q9H5P4) | pKd (Q96JB8) | Binder | further results
1 | below the threshold | below the threshold | below the threshold | below the threshold | below the threshold | below the threshold | below the threshold | below the threshold | below the threshold | below the threshold | below the threshold | below the threshold | below the threshold | below the threshold | below the threshold | below the threshold | below the threshold | below the threshold | below the threshold | below the threshold | QSARYRDTEL [TJP2, Q9UDY2] | pKd (GIPC1, O14908): below the threshold; pKd (PDZD2_6, O15018): below the threshold; pKd (PARD6B, Q9BYG5): below the threshold; pKd (MAGI1_5, Q96QZ7): below the threshold; pKd (TJP3_1, O95049): below the threshold; pKd (MPDZ_3, O75970): below the threshold; pKd (Q12923): below the threshold
2 | below the threshold | below the threshold | below the threshold | below the threshold | below the threshold | below the threshold | below the threshold | below the threshold | below the threshold | below the threshold | below the threshold | below the threshold | below the threshold | below the threshold | below the threshold | below the threshold | below the threshold | below the threshold | 4.25 | below the threshold | STLTIFETAL [ABCC4, O15439] | pKd (GIPC1, O14908): 4.1; pKd (PDZD2_6, O15018): below the threshold; pKd (PARD6B, Q9BYG5): below the threshold; pKd (MAGI1_5, Q96QZ7): 5.11; pKd (TJP3_1, O95049): below the threshold; pKd (MPDZ_3, O75970): 4.18; pKd (Q12923): below the threshold
